How the values were obtained:
[1] = substrate: C[C@@H]1O[C@@H](O[C@@H]2[C@@H](O)[C@H](OCCc3ccc(O)c(O)c3)O[C@H](COC(=O)/C=C/c3ccc(O)c(O)c3)[C@H]2O)[C@H](O)[C@H](O)[C@H]1O; assay: uptake into vacuolar membrane vesicles, HPLC, Lineweaver-Burk; type: biochemical, Rehmannia glutinosa; conditions: vesicles from transfected N. benthamiana protoplasts, 25 mM Tris-MES pH 8.0, 0.4 M sorbitol, 0.1% BSA, 25 °C, 20 min, substrate 20–120 μM
[2] = substrate: C[C@@H]1O[C@@H](O[C@@H]2[C@@H](O)[C@H](OCCc3ccc(O)c(O)c3)O[C@H](CO)[C@H]2OC(=O)/C=C/c2ccc(O)c(O)c2)[C@H](O)[C@H](O)[C@H]1O; assay: as above; type: biochemical, Rehmannia glutinosa; conditions: vesicles from transfected N. benthamiana protoplasts, 25 mM Tris-MES pH 8.0, 0.4 M sorbitol, 0.1% BSA, 25 °C, 20 min, substrate 20–120 μM

B1: RgMATE6 (Rehmannia glutinosa) (protein)
chain: MEDNSKQPLLSYEEEEEEDQVPDLVSVPSRFSFQRLSNFSFFSSFVADDEDIAPIETFSEFMSAFKDESGKLWFLAGPAIFTSLCQYSLGAFTQTFAGHVGTLELAAFSSVIAGLSLGVMLGMGSAVETLCGQAFGAGQHDMLGIYLQRSWIILLATGFILMFLYIFALPFLLVIGQTESISRVAGKLALWMIPQLFAYALNFPTAKFLQAQSKIMAMAWISAAGLGLHVLFSWLLMLKLGWGMAGGAAVLDGSWWFIVIAQLIYIFSGTCGKAWPGFSLRAFSNLWGFVRLSVASAVMMCLETWYFMALVLFAGYLKDAEVAVAALSVCTNILGWTNTIAVGFNAAISVRVSNELGASRPRTAKFSVVVMVISAFLIGLIVSILLLIFQDQYPSLFSDSLDVKQVVYELTPLLAFSIVVNSIQPALSGVAIGAGWQALIAYVNIVCYYVFGVPLGLILGYPLNMGVKGIWYGMVAGTVLQTLILFWIVYRTDWNKEASIAAKRIKYWRGEAEAAKSKGLGEIK
notes: full-length ORF (524 residues, 12 TM helices), C-terminal GFP fusion (pBI121-RgMATE6-GFP), transiently expressed in Nicotiana benthamiana mesophyll protoplasts; vacuolar membrane vesicles
Km [1]: 121.98 µM | Km [2]: 35.59 µM

Reference: paper PMC12694110, “A Multidrug and Toxic Compound Extrusion Transporter, RgMATE6, Facilitates Vacuolar Transport of Acteoside in Rehmannia glutinosa” (Plants, 2025)
